Source: patent US11306156
Values belong to the substance of their own block, whether it stands above or below them.

Experiments:
[1] = target: tissue factor (TF) antigen (UniProt P13726); test: vs wild-type D3H44 Fab (KD 0.157 nM); SPR, Fab captured on anti-penta-His, TF as analyte; batch C (+)
[2] = target: tissue factor (TF) antigen (UniProt P13726); test: SPR, Fab captured on anti-penta-His, TF as analyte, 1:1 fit; batch C (+)
[3] = target: tissue factor (TF) antigen (UniProt P13726); test: SPR (ProteOn), Fab captured on anti-penta-His, TF analyte, 1:1 fit; * estimated from a Fab differing only in the L chain tag
[4] = target: tissue factor (TF) antigen (UniProt P13726); test: SPR KD against wild-type D3H44 Fab; * estimated value (estimated wild-type KD […])
[5] = target: D3H44 light chain Q124E_T178E_T180E, N-terminal HA or FLAG tag; test: LCCA, SPR of light chain tags, L1:L2 DNA 1:9 norm. to 1:1; other light chain m17
[6] = target: D3H44 light chain Q124E_T178E_T180E, N-terminal HA or FLAG tag; test: LCCA, SPR of light chain tags, L1:L2 DNA 1:3 norm. to 1:1; other light chain m17
[7] = target: D3H44 light chain Q124R_T178R, N-terminal HA or FLAG tag; test: LCCA, SPR of light chain tags, L1:L2 DNA 1:3 norm. to 1:1; other light chain m16
[8] = target: D3H44 light chain Q124R_Q160K_T178R, N-terminal HA or FLAG tag; test: LCCA, SPR of light chain tags, L1:L2 DNA 1:3 norm. to 1:1; other light chain m21
[9] = target: D3H44 light chain Q124E_S176L_T180E, N-terminal HA or FLAG tag; test: LCCA, SPR of light chain tags, L1:L2 DNA 1:3 norm. to 1:1; other light chain m14
[10] = target: D3H44 light chain Q124R_Q160K_T178R, N-terminal HA or FLAG tag; test: LCCA, SPR of light chain tags, L1:L2 DNA 1:9 norm. to 1:1; other light chain m21
[11] = target: tissue factor (TF) antigen (UniProt P13726); test: SPR, Fab captured on anti-penta-His surface, TF as analyte, 1:1 fit; estimated value, from a Fab that differs only in the L chain tag
[12] = target: tissue factor (TF) antigen (UniProt P13726); test: SPR, Fab captured on anti-penta-His surface, TF as analyte, 1:1 fit; estimated value, from a Fab that differs only in the L chain tag; against wild-type D3H44 Fab
[13] = target: D3H44 light chain Q124R_T178R with N-terminal HA or FLAG tag; test: LCCA (SPR tag readout), L1:L2 DNA 1:3, normalized to 1:1; competing light chain m10
[14] = target: D3H44 light chain Q124E_T180E with N-terminal HA or FLAG tag; test: LCCA (SPR tag readout), L1:L2 DNA 1:3, normalized to 1:1; competing light chain m12
[15] = target: D3H44 light chain Q124E_T178E with N-terminal HA or FLAG tag; test: LCCA (SPR tag readout), L1:L2 DNA 1:3, normalized to 1:1; competing light chain m9
[16] = target: D3H44 light chain Q124E_T178E_T180E with N-terminal HA or FLAG tag; test: as above
[17] = target: D3H44 light chain Q124E_T180E with N-terminal HA or FLAG tag; test: as above
[18] = target: D3H44 light chain Q124R_T178R with N-terminal HA or FLAG tag; test: LCCA (SPR tag readout), L1:L2 DNA 1:3, normalized to 1:1; competing light chain m13
[19] = target: D3H44 light chain Q124K_T178R with N-terminal HA or FLAG tag; test: as above
[20] = target: D3H44 light chain Q124R_Q160K_T178R with N-terminal HA or FLAG tag; test: as above
[21] = target: D3H44 light chain T178R with N-terminal HA or FLAG tag; test: as above
[22] = target: D3H44 light chain Q124R_T178R with N-terminal HA or FLAG tag; test: LCCA (SPR tag readout), L1:L2 DNA 1:3, normalized to 1:1; competing light chain m11
[23] = target: D3H44 light chain Q124R_T178R with N-terminal HA or FLAG tag; test: LCCA (SPR tag readout), L1:L2 DNA 1:9, normalized to 1:1; competing light chain m10
[24] = target: D3H44 light chain Q124E_T178E with N-terminal HA or FLAG tag; test: LCCA (SPR tag readout), L1:L2 DNA 1:9, normalized to 1:1; competing light chain m9
[25] = target: D3H44 light chain Q124E_T178E_T180E with N-terminal HA or FLAG tag; test: as above
[26] = target: D3H44 light chain Q124E_T180E with N-terminal HA or FLAG tag; test: LCCA (SPR tag readout), L1:L2 DNA 1:3, normalized to 1:1; competing light chain m14
[27] = target: D3H44 light chain Q124E_T180E with N-terminal HA or FLAG tag; test: LCCA (SPR tag readout), L1:L2 DNA 1:3, normalized to 1:1; competing light chain m19
[28] = target: D3H44 light chain Q124R_T178R with N-terminal HA or FLAG tag; test: LCCA (SPR tag readout), L1:L2 DNA 1:9, normalized to 1:1; competing light chain m11
[29] = target: D3H44 light chain Q124R_T178R, N-terminal HA or FLAG tag; test: LCCA, SPR of light chain tags, L1:L2 DNA 1:3 norm. to 1:1; other light chain m25
[30] = target: D3H44 light chain Q124E_V133W_T180E, N-terminal HA or FLAG tag; test: LCCA, SPR of light chain tags, L1:L2 DNA 1:3 norm. to 1:1; other light chain m14
[31] = target: tissue factor (TF) antigen (UniProt P13726); test: SPR, Fab captured on anti-penta-His surface, TF as analyte, 1:1 fit; Fab batch C
[32] = target: tissue factor (TF) antigen (UniProt P13726); test: SPR, Fab captured on anti-penta-His surface, TF as analyte, 1:1 fit; Fab batch C; against wild-type D3H44 Fab
[33] = target: D3H44 light chain Q124E_T180E, N-terminal HA or FLAG tag; test: LCCA, L1:L2 DNA 1:3, SPR of light chain tags; competing light chain m10
[34] = target: D3H44 light chain Q124E_T180E, N-terminal HA or FLAG tag; test: LCCA, L1:L2 DNA 1:3, SPR of light chain tags; competing light chain m14
[35] = target: D3H44 light chain Q124E_Q160E_T180E, N-terminal HA or FLAG tag; test: LCCA, L1:L2 DNA 1:3, SPR of light chain tags; competing light chain m16
[36] = target: D3H44 light chain Q124R_Q160K_T178R, N-terminal HA or FLAG tag; test: LCCA, L1:L2 DNA 1:3, SPR of light chain tags; competing light chain m13
[37] = target: D3H44 light chain T178R, N-terminal HA or FLAG tag; test: as above
[38] = target: D3H44 light chain Q124R_T178K, N-terminal HA or FLAG tag; test: LCCA, L1:L2 DNA 1:3, SPR of light chain tags; competing light chain m11
[39] = target: D3H44 light chain Q124R_T178R, N-terminal HA or FLAG tag; test: as above
[40] = target: D3H44 light chain Q124E_Q160E_T180E, N-terminal HA or FLAG tag; test: LCCA, L1:L2 DNA 1:3, SPR of light chain tags; competing light chain m12
[41] = target: D3H44 light chain Q124R_T178K, N-terminal HA or FLAG tag; test: LCCA, L1:L2 DNA 1:9, SPR of light chain tags; competing light chain m11
[42] = target: D3H44 light chain Q124R_T178R, N-terminal HA or FLAG tag; test: as above
[43] = target: D3H44 light chain Q124E_Q160E_T180E, N-terminal HA or FLAG tag; test: LCCA, L1:L2 DNA 1:9, SPR of light chain tags; competing light chain m16
[44] = target: D3H44 light chain Q124E_Q160E_T180E, N-terminal HA or FLAG tag; test: LCCA, L1:L2 DNA 1:9, SPR of light chain tags; competing light chain m12

- change in median KD compared to wild type, -(log(KD design)-log(KD wt)) [1]: 0.02
- Kd [2]: 0.15 nM
Substance: H1L1 Fab heterodimer of LCCA set 9654 (D3H44 Fab, H1 L143E_K145T_Q179E, L1 Q124R_Q160K_T178R)

- change in median KD compared to wild type, -(log(KD design)-log(KD wt)) [1]: 0.39
- Kd [2]: 0.06 nM
Substance: H1L1 Fab heterodimer of LCCA set 9620 (D3H44 Fab, H1 L143E_K145T_Q179D, L1 Q124R_Q160K_T178R)

- Kd [3]: 0.12 nM
- Change in KD with respect to wild type (-(log(KD design) - log(KD wt))) [4]: 0.12
Substance: D3H44 Fab heterodimer, H: L143E_K145T_Q179D, L: Q124R_T178K (H1L1 Fab of LCCA set 9629)

- H2L2:H2L1 normalized median ratio [5]: 87%
- H2L2:H2L1 normalized median ratio [6]: 94%
- H2L2:H2L1 normalized median ratio [7]: 7%
- H2L2:H2L1 normalized median ratio [8]: 6%
- H2L2:H2L1 normalized median ratio [9]: 93%
- H2L2:H2L1 normalized median ratio [10]: 13%
Substance: D3H44 Fab heavy chain S186R, ABD2-His6 tagged

- Kd [11]: 0.24 nM
- change in median KD compared to wild type, -(log(KD design)-log(KD wt)) [12]: -0.19
Substance: D3H44 H1L1 Fab heterodimer of LCCA Set # 9707 (H1 L143E_K145T_S188L; L1 Q124R_Q160K_T178R)

- H2L2:H2L1 normalized median ratio [13]: 7%
- H2L2:H2L1 normalized median ratio [14]: 97%
- H2L2:H2L1 normalized median ratio [15]: 96%
- H2L2:H2L1 normalized median ratio [16]: 93%
- H2L2:H2L1 normalized median ratio [17]: 96%
- H2L2:H2L1 normalized median ratio [18]: 4%
- H2L2:H2L1 normalized median ratio [19]: 3%
- H2L2:H2L1 normalized median ratio [20]: 2%
- H2L2:H2L1 normalized median ratio [21]: 4%
- H2L2:H2L1 normalized median ratio [22]: 4%
- H2L2:H2L1 normalized median ratio [23]: 18%
- H2L2:H2L1 normalized median ratio [24]: 82%
- H2L2:H2L1 normalized median ratio [25]: 82%
- H2L2:H2L1 normalized median ratio [26]: 98%
- H2L2:H2L1 normalized median ratio [27]: 96%
- H2L2:H2L1 normalized median ratio [28]: 18%
Substance: D3H44 Fab heavy chain S186R with C-terminal ABD2-His6 tag

- change in median KD compared to wild type, -(log(KD design)-log(KD wt)) [1]: 0.16
- Kd [2]: 0.11 nM
Substance: H1L1 Fab heterodimer of LCCA sets 9801 and 9802 (D3H44 Fab, H1 Q179R, L1 Q124E_Q160E_T178E)

- H1L1:H1L2 normalized median ratio [29]: 5%
- H1L1:H1L2 normalized median ratio [30]: 95%
- H1L1:H1L2 normalized median scalar value ln(r1/f1) [30]: 2.9
Substance: D3H44 Fab heavy chain L124A_Q179K, ABD2-His6 tagged

- Kd [31]: 0.12 nM
- Kd [11]: 0.12 nM
- change in median KD compared to wild type, -(log(KD design)-log(KD wt)) [32]: 0.12
- change in median KD compared to wild type, -(log(KD design)-log(KD wt)) [12]: 0.12
Substance: D3H44 H1L1 Fab heterodimer of LCCA Set # 9626 (H1 L143E_K145T_Q179D; L1 Q124R_T178K)

- Kd [31]: 0.19 nM
- Kd [11]: 0.19 nM
- change in median KD compared to wild type, -(log(KD design)-log(KD wt)) [32]: -0.08
- change in median KD compared to wild type, -(log(KD design)-log(KD wt)) [12]: -0.08
Substance: D3H44 H1L1 Fab heterodimer of LCCA Set # 9657 (H1 L143E_K145T_Q179E; L1 Q124R_T178K)

- H1L1:H1L2 normalized median ratio [29]: 5%
- H1L1:H1L2 normalized median ratio [30]: 95%
- H1L1:H1L2 normalized median scalar value ln(r1/f1) [30]: 2.98
Substance: D3H44 Fab heavy chain L124A_S186K, ABD2-His6 tagged

- Kd [3]: 0.06 nM
- Change in KD with respect to wild type (-(log(KD design) - log(KD wt))) [4]: 0.39
Substance: D3H44 Fab heterodimer, H: L143E_K145T_Q179D, L: Q124R_Q160K_T178R (H1L1 Fab of LCCA set 9623)

- H2L2:H2L1 normalized median ratio [33]: 96 share of 100
- H2L2:H2L1 normalized median ratio [34]: 98 share of 100
- H2L2:H2L1 normalized median ratio [35]: 83 share of 100
- H2L2:H2L1 normalized median ratio [36]: 2 share of 100
- H2L2:H2L1 normalized median ratio [37]: 4 share of 100
- H2L2:H2L1 normalized median ratio [38]: 17 share of 100
- H2L2:H2L1 normalized median ratio [39]: 19 share of 100
- H2L2:H2L1 normalized median ratio [40]: 81 share of 100
- H2L2:H2L1 normalized median ratio [41]: 11 share of 100
- H2L2:H2L1 normalized median ratio [42]: 14 share of 100
- H2L2:H2L1 normalized median ratio [43]: 89 share of 100
- H2L2:H2L1 normalized median ratio [44]: 86 share of 100
Substance: D3H44 Fab heavy chain S186R, C-terminal ABD2-His6 tag
